What was measured:
[1] = molecular target: the molecule itself; experiment: SAXS; scattering curve of 5KA DprA in solution superimposed on that of WT DprA (the latter taken from ref. 18)
[2] = molecular target: T1, S. pneumoniae RecA lacking the first 28 residues (Δ28), purified (S. pneumoniae, UniProt P0A451 29-388); experiment: pull-down; pull-down on magnetic beads using purified proteins; which partner was on the beads is told only in the supplementary methods; settings: both partners purified
T1 construct: RecA, Streptococcus pneumoniae, locus Sp1940, the 28 first residues removed; also called Δ28RecA; source: E. coli, purified (Ni-NTA column, gel filtration)

B1: S. pneumoniae DprA K119A/K144A/K175A/K202A/K225A (5KA), purified (natural protein)
chain: MKITNYEIYKLKKSGLTNQQILKVLEYGENVDQELLLGDIADISGCRNPAVFMERYFQIDDAHLSKEFQKFPSFSILDDCYPWDLSEIYDAPVLLFYKGNLDLLKFPKVAVVGSRACSAQGAKSVEKVIQGLENELVIVSGLAAGIDTAAHMAALQNGGKTIAVIGTGLDVFYPAANKRLQDYIGNDHLVLSEYGPGEQPLAFHFPARNRIIAGLCRGVIVAEAAMRSGSLITCERAMEEGRDVFAIPGSILDGLSDGCHHLIQEGAKLVTSGQDVLAEFEF
notes: DprA, Streptococcus pneumoniae, locus Sp1266, five lysines K119/K144/K175/K202/K225 mutated to alanines; also called 5KADprA; 5KA mutant; source: E. coli, purified (Ni-NTA column, gel filtration)
stoichiometry N [1]: 2
binding result [2]: binds
